Like-named read-outs stand apart in the source and are kept apart here.
B1: EphrinB2EC-AP from pAPTag2 (ligand)
chain: IVLEPIYWNSSNSKFLPGQGLVLYPQIGDKLDIICPKVDSKTVGQYEYYKVYMVDKDQADRCTIKKENTPLLNCAKPDQDIKFTIKFQEFSPNLWGLEFQKNKDYYIISTSNGSLEGLDNQEGGVCQTRAMKILMKVGQDASSAGSTRNKDPTRRPELEAGTNGRSSTTSPFVKPNPGSSTDGNSAGHSGNNILGSEGSSGIIPVEEENPDFWNREAAEALGAAKKLQPAQTAAKNLIIFLGDGMGVSTVTAARILKGQKKDKLGPEIPLAMDRFPYVALSKTYNVDKHVPDSGATATAYLCGVKGNFQTIGLSAAARFNQCNTTRGNEVISVMNRAKKAGKSVGVVTTTRVQHASPAGTYAHTVNRNWYSDADVPASARQEGCQDIATQLISNMDIDVILGGGRKYMFPMGTPDPEYPDDYSQGGTRLDGKNLVQEWLAKRQGARYVWNRTELMQASLDPSVTHLMGLFEPGDMKYEIHRDSTLDPSLMEMTEAALRLLSRNPRGFFLFVEGGRIDHGHHESRAYRALTETIMFDDAIERAGQLTSEEDTLSLVTADHSHVFSFGGYPLRGSSIFGLAPGKARDRKAYTVLLYGNGPGYVLKDGARPDVTESESGSPEYRQQSAVPLDEETHAGEDVAVFARGPQAHLVHGVQEQTFIAHVMAFAACLEPYTACDLAPPAGTTDAAHPG
notes: also called B2-AP; B2ECAP reagent
B2: Murine EphrinA2-EC-Fc (Fc fusion)
chain: RNEDPARANADRYAVYWNRSNPRFQVSAVGDGGGYTVEVSINDYLDIYCPHYGAPLPPAERMERYILYMVNGEGHASCDHRQRGFKRWECNRPAAPGGPLKFSEKFQLFTPFSLGFEFRPGHEYYYISATPPNLVDRPCLRLKVYVRPTNETLYEAPEPIFTSN
B3: Murine EphrinB1-EC-Fc (Fc fusion)
chain: ATPLAKNLEPVSWSSLNPKFLSGKGLVIYPKIGDKLDIICPRAEAGRPYEYYKLYLVRPEQAAACSTVLDPNVLVTCNKPHQEIRFTIKFQEFSPNYMGLEFKKYHDYYITSTSNGSLEGLENREGGVCRTRTMKIVMKVGQDPNAVTPEQLTTSRPSKESDNTVKTATQAPGRGSQGDSDGKHETVNQEEKSGPGAGGGGSGDSDSFFNSK

Tests used:
[1] = biological target: HeV and NiV F and G envelope glycoproteins (on effector cells); assay: cell-based or functional assay
[2] = biological target: T1, B4ECv3 (human, UniProt P54760 16-537); assay: biochemical assays; B4ECv3 on Ni-NTA agarose, 50 nM B2-AP, PNPP colorimetry
T1 construct: also called B4ECv3 protein
T1 sequence: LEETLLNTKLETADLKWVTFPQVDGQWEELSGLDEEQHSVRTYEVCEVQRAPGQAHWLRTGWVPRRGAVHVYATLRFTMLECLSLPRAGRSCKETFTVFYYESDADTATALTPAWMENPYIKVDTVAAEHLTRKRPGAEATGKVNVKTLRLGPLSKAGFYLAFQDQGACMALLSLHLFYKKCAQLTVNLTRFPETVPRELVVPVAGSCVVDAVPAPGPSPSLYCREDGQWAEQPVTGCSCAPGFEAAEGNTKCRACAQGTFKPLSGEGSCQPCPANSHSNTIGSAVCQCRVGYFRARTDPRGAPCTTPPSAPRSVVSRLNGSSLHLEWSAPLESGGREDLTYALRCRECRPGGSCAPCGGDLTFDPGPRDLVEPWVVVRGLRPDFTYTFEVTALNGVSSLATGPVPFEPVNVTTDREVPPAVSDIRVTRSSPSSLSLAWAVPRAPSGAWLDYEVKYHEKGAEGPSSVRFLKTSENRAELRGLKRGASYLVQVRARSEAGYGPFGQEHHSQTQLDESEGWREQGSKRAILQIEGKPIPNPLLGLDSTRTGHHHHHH

[3] = biological target: HeV and NiV F and G envelope glycoproteins (on effector cells); assay: cell-based or functional assay; remark: listed apart in the source

Molecule	% fusion (cell fusion assay), 0.1 µg/ml inhibitor [1] [%]	% fusion (cell fusion assay), 1.0 µg/ml inhibitor [1] [%]	% fusion (cell fusion assay), 10 µg/ml inhibitor [1] [%]	% fusion (cell fusion reporter gene assay, beta-Gal), 10 µg/ml protein [1] [%]	binding result [2]	% fusion (cell fusion assay), 0.1 µg/ml inhibitor [3] [%]	% fusion (cell fusion assay), 1.0 µg/ml inhibitor [3] [%]	% fusion (cell fusion assay), 10 µg/ml inhibitor [3] [%]	% fusion (cell fusion reporter gene assay, beta-Gal), 10 µg/ml protein [3] [%]
human EphrinB2EC-Human serum albumin fusion protein (from UniProt P52799 28-229)	85.3	115	64	54.8					
Inactivated Human EphrinB2-Ec (from UniProt P52799 28-225) (ligand)	103	104	77.3	83.3					
Bovine Serum Albumin (from UniProt P02769 25-607)	112	112	124	126					
Murine EphrinB2-Ec-Fc (from UniProt P52800 29-232) (Fc fusion)	70.7	1.87	2.93	8.33					
B1					binds				
B2						81.3	104	112	117
B3						109	133	147	140

Reference: US20070218061A1 (VASGENE THERAPEUTICS, published 2007)
